Measured values as given in paper PMC7608815.

Assays:
purified protein [1] = substrate: COC(=O)c1cccc(O)c1N; test: purified protein; format: biochemical, Solanum lycopersicum; details: 200 or 500 uM p-coumaroyl-CoA, 30 C, aminoacylation (amide synthesis)
purified protein [2] = substrate: CC(C)(COP(=O)(O)OP(=O)(O)OC[C@H]1O[C@@H](n2cnc3c(N)ncnc32)[C@H](O)[C@@H]1OP(=O)(O)O)[C@@H](O)C(=O)NCCC(=O)NCCSC(=O)CC(=O)O; test: purified protein; details: 200 uM p-coumaroyl-CoA, 30 C, 120 nM enzyme

B1: SlCHS (Solanum lycopersicum) (protein)
chain: MVTVEEYRKAQRAEGPATILAIGTSTPSNCVDQSTYPDYYFRITNSEHKTELKEKFKRMCDKSMIKKRYMHLTEEILKENPNMCAYMAPSLDARQDIVVVEVPKLGKRGTQKAIKEWGQPKSKITHLVFCTTSGVDMPACDYQLAKLLPVRPSVKRLMMYQQGCFAGGTVLRLAKDLAENNKGARVLVVCSEITAVTFRGPSESHLDSLVGQALFGDGAAAIIIGSDPIIGVERPLFELVSAAQTLVPDSEGAIDGHLREVGLTFHLLKDVPGLISKNIEKSLLEAFQPLGISDWNSLFWIAHPGGPAILDQVELKLGLKPEKLRATREVLSNYGNMSSACVLFILDEMRKASTKEGLGTTGEGLEWGVLFGFGPGLTVETVVLHSVAA
In the case of B1, the Km (purified protein [1]) is reported as 3060 µM, the kcat (purified protein [1]) is reported as 0.00603 s⁻¹ and the Km (purified protein [2]) is reported as 21.34 µM. For the same protein, the kcat (purified protein [2]) was 0.00157 s⁻¹.
